Measured values reported in the supplement of paper PMC9732359.
± gives the uncertainty stated by the source.

Assay: protein stability index of a GFP-peptide fusion (yeast GPS) (PSI 1-4); higher = more stable; sorted into four equal gates, so the index is relative within each strain
Outline: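 Mid-log yeast cultures in leucine-free medium, carrying a pooled plasmid library, were sorted into four equal gates by their GFP/Cherry fluorescence ratio. Each plasmid expressed Cherry along with GFP fused upstream of a tiled 17-residue yeast protein peptide. Plasmids recovered from each gate were PCR-amplified and Illumina-sequenced, with reads assigned to strains by barcodes. The protein stability index was obtained by summing each gate's read frequency weighted by its gate number.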

Row | Sequence | protein stability index (doa10∆) | protein stability index (pdr5∆) | protein stability index (san1∆) | protein stability index (ubr1∆)
1 | GIKLQMQNSKVESVCQK [SMC4] | 2.55 ± 0.074 | 2.45 ± 0.077 | 2.59 ± 0.08 | 2.5 ± 0.084
2 | GIKPPKGVLLYGPPGTG [RPT4] | 2.73 ± 0.13 | 2.62 ± 0.072 | 2.22 ± 0.22 | 2.01 ± 0.075
3 | GIRGKLVTIEGALIHKA [SMC1] | 3.33 ± 0.2 | 2.95 ± 0.17 | 2.88 ± 0.13 | –
4 | GITHFRAGMTHEDEKLI [PRP8] | 2.62 ± 0.079 | 2.47 ± 0.065 | 3.1 ± 0.059 | 3.14 ± 0.044
5 | GKAKGDIPGVRFKVVKV [RPS23A] | 3.32 ± 0.19 | 3.42 ± 0.18 | – | –
6 | GKEFGTTPEKPEETPLE [FAS2] | 2.77 ± 0.095 | 2.7 ± 0.076 | 2.6 ± 0.059 | 2.81 ± 0.069
7 | GKQIKSTIYNWGDNKLA [YML103C/NUP188] | 2.71 ± 0.17 | 3.18 ± 0.15 | 2.82 ± 0.11 | 2.87 ± 0.1
8 | GKRHIFDVNTLCLMTWK [CDC53] | 1.25 ± 0.061 | 1.75 ± 0.066 | 1.44 ± 0.14 | 2.08 ± 0.085
9 | GKRQLMKAVGEYMKRHP [SEC65] | 2.73 ± 0.082 | 3.31 ± 0.091 | 2.94 ± 0.071 | 2.47 ± 0.086
10 | GLCGAGTNNARLAQLLR [RPN1] | 2.44 ± 0.068 | 1.79 ± 0.047 | 1.4 ± 0.13 | 1.16 ± 0.042
11 | GLIVNPVKVSGTIKKIE [POP5] | 2.41 ± 0.16 | 2.97 ± 0.19 | 2.95 ± 0.12 | 2.26 ± 0.15
12 | GLTTVWLLSALGNSIVK [REC8] | 1.61 ± 0.085 | 2.31 ± 0.075 | 2.13 ± 0.14 | 1.77 ± 0.12
13 | GLVHDLCHPKKEKYGLA [SMC1] | 2.59 ± 0.11 | 2.84 ± 0.12 | 2.81 ± 0.29 | 2.17 ± 0.083
14 | GMGGGMPDMNEMMKMMQ [SRP54] | 3.17 ± 0.21 | 3.51 ± 0.23 | 3.58 ± 0.083 | 3.35 ± 0.081
15 | GMGIGFIDHHAAIRQPT [POP1] | – | 2.94 ± 0.086 | – | 2.49 ± 0.15
16 | GMNLLSNLSQNVVPYHR [SWI1] | 1.88 ± 0.079 | 2.88 ± 0.1 | 2.46 ± 0.098 | 2.43 ± 0.065
17 | GNAVTVTEDGTVVTVVS [RPL22A] | 1.38 ± 0.044 | 1.67 ± 0.078 | 1.45 ± 0.11 | 1.84 ± 0.065
18 | GNDNLIKAPTVAADGKL [YLR335W/NUP2] | 2.46 ± 0.097 | 2.93 ± 0.09 | 2.56 ± 0.077 | 2.95 ± 0.072
19 | GNDTISKFYNMKQPYVF [SSN2] | 3.12 ± 0.12 | 3.05 ± 0.11 | 3.2 ± 0.057 | 3.2 ± 0.065
20 | GNGKLSEHFLYLAKELN [RPN1] | 3.06 ± 0.23 | 2.19 ± 0.18 | 2.42 ± 0.2 | 2.98 ± 0.29
21 | GNIVKEFENKFQNSYKP [YMR129W/POM152] | 3.35 ± 0.081 | 3.14 ± 0.13 | 3.37 ± 0.053 | 3.39 ± 0.098
22 | GNNKDLKNTMQYLTNFS [RPB4] | 3.16 ± 0.08 | 3.02 ± 0.072 | 3.02 ± 0.075 | 3.13 ± 0.061
23 | GNNTELTKTTVNISAVD [YCG1] | 2.98 ± 0.07 | 3.24 ± 0.071 | 3.02 ± 0.054 | 3.12 ± 0.054
24 | GNQRKILQYSRTWYESF [YJR042W/NUP85] | 2.36 ± 0.099 | 2.79 ± 0.1 | 2.28 ± 0.17 | 2.21 ± 0.21

Row | Sequence | protein stability index (doa10∆) | protein stability index (pdr5∆) | protein stability index (san1∆) | protein stability index (ubr1∆)
25 | GNRYLEKRLNLRVEHIK [RPL21A] | 3.05 ± 0.077 | 2.96 ± 0.086 | 3.08 ± 0.075 | 3.05 ± 0.071
26 | GNSESKVEKGVNIEPFN [LIN1] | 3.7 ± 0.13 | 3.67 ± 0.17 | 3.46 ± 0.08 | 3.13 ± 0.079
27 | GNVIQFIYGEDGMDAAH [RPO21] | 2.89 ± 0.065 | 2.58 ± 0.06 | 3.2 ± 0.063 | 3.32 ± 0.042
28 | GNYIKTENATENDQQDN [LIN1] | 2.51 ± 0.098 | 2.62 ± 0.071 | 2.05 ± 0.13 | 2.61 ± 0.086
29 | GQHKNNTSLNINGWKFE [SWP82] | 3.09 ± 0.075 | 3.21 ± 0.074 | 3.05 ± 0.063 | 2.99 ± 0.077
30 | GQKNEVRILRLITTNSV [SNF2] | 2.21 ± 0.052 | 1.95 ± 0.052 | 2.14 ± 0.058 | 2.08 ± 0.049
31 | GQLGLDDNDVPGPLPDT [YLR018C/POM34] | 3.27 ± 0.2 | 2.94 ± 0.14 | 2.37 ± 0.23 | –
32 | GQVAIKTLVYLEKCEAE [YCS4] | – | – | – | 2.92 ± 0.24
33 | GRENFVYANNPEVSDDG [SIR3] | 3.05 ± 0.096 | 3.08 ± 0.085 | 2.8 ± 0.1 | 3.03 ± 0.068
34 | GRGGSGWKPYYKLFIWL [YML031W/NDC1] | 1.5 ± 0.055 | 1.78 ± 0.052 | 1.41 ± 0.089 | 1.31 ± 0.049
35 | GRHVATCSSDQHIKVFK [YGL100W/SEH1] | 2.71 ± 0.066 | 2.76 ± 0.059 | 2.57 ± 0.08 | 2.75 ± 0.052
36 | GRMDMTRLYDYEIRDID [SSN2] | 3.29 ± 0.24 | 2.94 ± 0.15 | 3.38 ± 0.074 | 3.36 ± 0.096
37 | GRRKTWKRQNTLSLWRY [RPL15A] | 3.21 ± 0.1 | 3.11 ± 0.11 | 2.57 ± 0.085 | 3.37 ± 0.057
38 | GRTGRAANEGTAVSFVS [PRP28] | 2.7 ± 0.26 | – | 2.81 ± 0.27 | 2.7 ± 0.26
39 | GRTPNISNGTINIQKKL [SIR4] | 2.37 ± 0.058 | 2.64 ± 0.048 | 2.58 ± 0.063 | 2.16 ± 0.041
40 | GRVKALEQFMERNNIGE [YDL116W/NUP84] | 2.78 ± 0.12 | 2.68 ± 0.08 | 2.75 ± 0.15 | 3.07 ± 0.1
41 | GSCTRQLAGKSGEDTNV [YOR098C/NUP1] | 3.38 ± 0.2 | 3.51 ± 0.15 | 3.34 ± 0.12 | 3.17 ± 0.082
42 | GSEEKAFVPKKRKTNII [SRP54] | 3.12 ± 0.069 | 3.2 ± 0.077 | 2.88 ± 0.067 | 3.02 ± 0.06
43 | GSEVRLRDDTLPKAWIS [COR1] | 2.49 ± 0.053 | 2.75 ± 0.065 | 2.72 ± 0.075 | 2.69 ± 0.06
44 | GSGKSNMMDAISFVLGV [SMC1] | 3.18 ± 0.073 | 3.17 ± 0.074 | 3.24 ± 0.058 | 3.32 ± 0.043
45 | GSGSRLNRLPAASLGDM [RPL23A] | 2.28 ± 0.17 | 2.6 ± 0.18 | 2.66 ± 0.24 | 3.12 ± 0.22
46 | GSKKGQEGKISSVYRLK [RPL26A] | 3.15 ± 0.11 | 2.94 ± 0.096 | 2.7 ± 0.086 | 3.33 ± 0.11
47 | GSKMEAKNEDDPAHSLN [AAR2] | 2.34 ± 0.14 | 1.27 ± 0.13 | 1.23 ± 0.26 | 1.14 ± 0.15
48 | GSLACDTADEAKTLIPS [RPB4] | 3.06 ± 0.1 | 3.42 ± 0.086 | 3.33 ± 0.051 | 3.17 ± 0.071
